Measurements as given in patent US20040131615A1, “Methods for treating pain by administering a nerve growth factor antagonist and an opioid analgesic and compositions containing the same” (priority 2002, published 2004).

Molecular target: human NGF (Homo sapiens, UniProt P01138)
Assay: binding affinity; method not given

Sequence of human NGF (P01138 122-241 limits assumed): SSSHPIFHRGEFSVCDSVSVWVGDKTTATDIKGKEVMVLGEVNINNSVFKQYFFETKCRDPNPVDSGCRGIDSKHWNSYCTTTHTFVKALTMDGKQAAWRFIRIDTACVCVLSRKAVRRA

Kd: 0.07 nM
B1: humanized anti-NGF antibody E3 (antibody, V domains shown)
VH: VQLQESGPGLVKLPSETLSLTCTVSGFSLIGYDLNWIRQPPGKGLEWIGIIWGDGTTDYNSAVKSRVTISKDTSKNQFSLKLSSVTAADTAVYYCARGGYWYATSYYFDYWGQGTLVTVS
VL: DIQMTQSPSSLSASVGDRVTITCRASQSISNNLNWYQQKPGKAPKLLIYYTSRFHSGVPSRFSGSGSGTDFTFTISSLQPEDIATYYCQQEHTLPYTFGQGTKLEIK
